Assay results from US20050136055A1.

Key:
[1] = molecular target: Fc receptors (FcR) on human leukocytes (human); assay: 125I-labelled IgG1 control on human leukocytes, 4 C
[2] = molecular target: Fc receptors (FcR) on cynomolgus leukocytes (cynomolgus); assay: 125I-labelled IgG1 control on cynomolgus leukocytes, 4 C

Substance: human IgG1 control mAb (antibody)
- specific binding as % of the total bound radioactivity [1]: 56%
- specific binding as % of the total bound radioactivity [2]: 51%
